Results on 1 molecule are retold here after US20230287383A1, “PYRROLYSYL-tRNA SYNTHETASE VARIANTS AND USES THEREOF” (enGenes Biotech GmbH, priority 2020, published 2023).

Test [1] relates to eGFP Y40am. Description: eGFP Y40am amber suppression reporter: ncAA incorporation by o-pairs, fluorescence normalized to cell density. It is filed as cell-based. How it is done: The incorporation of BocK, AllocK and AzK by the MmPyIRS/MmtRNACUA^Pyl and MaPyIRS/MatRNACUA^Pyl o-pairs was compared. The ncAAs were supplemented in the medium at 5 mM. eGFP fluorescence (λex 488 nm; λem 508 nm) was assessed after 4 hours (white bars) and overnight (black bars) induction. Fluorescence units were correlated to cell density (F488;508/D600) and the average of eight technical replicates is shown; the error bars indicate the standard deviation.
The incorporation of AzK by the MmPyIRS/MmtRNACUA^Pyl and the MaPyIRS/MatRNACUA^Pyl wild type and mutant o-pairs was compared. The ncAA was supplemented in the medium at 5 mM. eGFP fluorescence (λex 485 nm; λem 530 nm) was assessed after overnight induction. eGFP wild type was expressed from the same plasmid carrying the MmOP. Fluorescence units were correlated to cell density (F485;530/D600) and the average of at least two technical replicates is shown; the error bars indicate the standard deviation.
FIG. 4: The MaPyIRS M129L V168C/MatRNACUA^Pyl mutant o-pair produces more target protein than MmOP with less or the same amount of AzK. MaOP LC, MaPyIRS M129L V168C/MatRNACUA^Pyl; MmOP, PyIRS and RNACUA^Pyl from M. mazel, both o-pairs were used in BL21(DE3) cells; UNINDUCED, eGFP Y40am expression was not induced; INDUCED, expression was induced with 1 mM IPTG. Different concentrations of AzK were provided in the medium either 2 hours before induction with IPTG, or in parallel with IPTG. eGFP fluorescence (λex 485 nm; λem 530 nm) was assessed after overnight induction and was normalized to cell density (D600). The average of at least 3 replicates is shown and the error bars indicate the standard deviation.
The MaPyIRS M129L+V168C mutant variant was generated, which contains the same amino acid residues in the amino acid binding pocket as the MmPyIRS. […] The efficiency of the incorporation of AzK into the reporter protein eGFP Y40am was assessed by recording the fluorescence intensity normalized to the corresponding cell density and was compared to the fluorescence of wild type eGFP expressed from the same plasmid.

Test [2] concerns eGFP Y40am. Description: SDS-PAGE analysis of eGFP Y40am expression in the presence of AzK. Conditions: overnight induction, compared to eGFP wild type band. The class given is cell-based. How it is done: FIG. 3: SDS-PAGE analysis of the expression of eGFP Y40am in the presence of AzK with the MaPyIRS M129L V168C/MatRNACUA^Pyl mutant o-pair in comparison to MmOP and MaOP corroborates the fluorescence analysis. eGFP expression was assessed after overnight induction, two expressions of eGFP Y40AzK with the mutant MaOP are shown. eGFP wild type was expressed from the same plasmid carrying the MmOP. Samples of corresponding cell density were analyzed. The calculated molecular weight of eGFP is 28 kDa. M, molecular weight marker.
To further validate the finding, the expression of the reporter protein eGFP by SDS-PAGE was analyzed (e.g., FIG. 3).

B1: MmPyIRS/MmtRNACUA^Pyl: wildtype Methanosarcina mazei pyrrolysyl-tRNA synthetase/tRNA o-pair, the benchmark (protein, UniProt Q8PWY1 1-454, looked up)
Pyrrolysine--tRNA ligase: MDKKPLNTLISATGLWMSRTGTIHKIKHHEVSRSKIYIEMACGDHLVVNNSRSSRTARALRHHKYRKTCKRCRVSDEDLNKFLTKANEDQTSVKVKVVSAPTRTKKAMPKSVARAPKPLENTEAAQAQPSGSKFSPAIPVSTQESVSVPASVSTSISSISTGATASALVKGNTNPITSMSAPVQASAPALTKSQTDRLEVLLNPKDEISLNSGKPFRELESELLSRRKKDLQQIYAEERENYLGKLEREITRFFVDRGFLEIKSPILIPLEYIERMGIDNDTELSKQIFRVDKNFCLRPMLAPNLYNYLRKLDRALPDPIKIFEIGPCYRKESDGKEHLEEFTMLNFCQMGSGCTRENLESIITDFLNHLGIDFKIVGDSCMVYGDTLDVMHGDLELSSAVVGPIPLDREWGIDKPWIGAGFGLERLLKVKHDFKNIKRAARSESYYNGISTNL
modifications: with cognate tRNA Pyl
notes: wildtype Methanosarcina mazei pyrrolysyl-tRNA synthetase/tRNA o-pair, the benchmark
Take B1: in the test on eGFP Y40am [1] (AllocK 5 mM in medium, eGFP fluorescence correlated to cell density), the AllocK incorporation result is recorded as “efficient incorporation”. The AzK incorporation efficiency entry in the test with eGFP Y40am [1] (AzK 5 mM in medium, eGFP fluorescence correlated to cell density (D600)) is on record as “very well incorporated”. Further, in the test on eGFP Y40am [1] (BocK 5 mM in medium, eGFP fluorescence correlated to cell density), the BocK incorporation entry is “efficient incorporation”. In addition, in the test on eGFP Y40am [2], the “eGFP expression band intensity in the presence of AzK” value is reported as “markedly less intense”.
